This passage reports Kd results from paper PMC10786891, “Massively parallel profiling of RNA-targeting CRISPR-Cas13d”.

Positions count from the first letter of the chain named. Names may count otherwise.

T1: EsCas13d, nuclease-dead (Eubacterium siraeum, UniProt B0MS50, R295A;H300A;R849A;H854A)
T1 sequence: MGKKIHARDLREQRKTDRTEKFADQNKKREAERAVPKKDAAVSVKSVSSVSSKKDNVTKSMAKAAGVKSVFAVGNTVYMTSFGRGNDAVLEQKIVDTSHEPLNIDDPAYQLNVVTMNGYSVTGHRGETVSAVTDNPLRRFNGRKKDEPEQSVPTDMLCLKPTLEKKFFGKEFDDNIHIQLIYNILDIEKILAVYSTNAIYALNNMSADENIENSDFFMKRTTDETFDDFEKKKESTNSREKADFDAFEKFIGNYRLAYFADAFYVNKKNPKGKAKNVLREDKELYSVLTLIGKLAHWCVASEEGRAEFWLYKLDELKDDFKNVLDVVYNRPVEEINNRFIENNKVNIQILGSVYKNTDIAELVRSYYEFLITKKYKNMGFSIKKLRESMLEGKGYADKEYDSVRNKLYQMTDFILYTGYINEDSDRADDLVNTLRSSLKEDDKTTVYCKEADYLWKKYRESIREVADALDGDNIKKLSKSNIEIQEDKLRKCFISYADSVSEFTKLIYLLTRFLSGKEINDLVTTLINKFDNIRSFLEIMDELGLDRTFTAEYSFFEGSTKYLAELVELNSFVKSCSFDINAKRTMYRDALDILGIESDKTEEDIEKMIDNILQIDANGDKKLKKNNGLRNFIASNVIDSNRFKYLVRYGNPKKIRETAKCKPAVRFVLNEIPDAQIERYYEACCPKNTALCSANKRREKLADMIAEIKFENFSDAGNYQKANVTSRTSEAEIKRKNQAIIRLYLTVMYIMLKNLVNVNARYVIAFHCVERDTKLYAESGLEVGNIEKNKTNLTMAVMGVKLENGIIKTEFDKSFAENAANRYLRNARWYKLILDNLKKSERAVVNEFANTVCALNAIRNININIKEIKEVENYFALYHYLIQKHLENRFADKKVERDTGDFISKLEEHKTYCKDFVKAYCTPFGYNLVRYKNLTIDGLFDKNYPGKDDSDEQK

B1: target 1 U3G,G17C (mixed)
RNA 1: CACCCGUGCAAAAAUGCAGGGGUCUAAAACUGAGCGGAUAACCUCUCUAUGG
RNA 2: GGGAAUGGAUCCACAUCUACGAAUUCGUACCAUACAGAGGUUAUCCGCGCACCGAGAUCGGAAGAGCACACGU
B2: target 1 G13U,A16C (mixed)
RNA 1: B1 RNA 1
RNA 2: B1 RNA 2 with C35G, A36C, G39U, G49U
B3: target 1 C2U,U10A (mixed)
RNA 1: B1 RNA 1
RNA 2: B1 RNA 2 with C35G, U42A, G49U, C50U
B4: target 2 MT 5'PFS GUG 3'PFS UAA (mixed)
RNA 1: CACCCGUGCAAAAUUGCAGGGGUCUAAAACCUUCUCCAAAUUGUUUCAUCCU
RNA 2: GGGAAUGGAUCCACAUCUACGAAUUCGUGAGGAUGAAACAAUUUGGAGAAGUAAAGAUCGGAAGAGCACACGU
B5: target 2 MT 5'PFS AAA 3'PFS AUA (mixed)
RNA 1: B4 RNA 1
RNA 2: B4 RNA 2 with G27A, U28A, G29A, U52A, A53U
B6: target 2 MT 5'PFS GCA 3'PFS ACG (mixed)
RNA 1: B4 RNA 1
RNA 2: B4 RNA 2 with U28C, G29A, U52A, A53C, A54G
B7: target 2 MT 5'PFS UAG 3'PFS UUC (mixed)
RNA 1: B4 RNA 1
RNA 2: B4 RNA 2 with G27U, U28A, A53U, A54C
B8: target 2 MT 5'PFS UAC 3'PFS CAG (mixed)
RNA 1: B4 RNA 1
RNA 2: B4 RNA 2 with G27U, U28A, G29C, U52C, A54G
B9: target 2 MT 5'PFS UCU 3'PFS CUC (mixed)
RNA 1: B4 RNA 1
RNA 2: B4 RNA 2 with G27U, U28C, G29U, U52C, A53U, A54C
B10: target 2 MT 5'PFS UAG 3'PFS UUA (mixed)
RNA 1: B4 RNA 1
RNA 2: B4 RNA 2 with G27U, U28A, A53U
B11: target 2 MT 5'PFS GUG 3'PFS UAU (mixed)
RNA 1: B4 RNA 1
RNA 2: B4 RNA 2 with A54U
B12: target 2 MT 5'PFS UUC 3'PFS UCC (mixed)
RNA 1: B4 RNA 1
RNA 2: B4 RNA 2 with G27U, G29C, A53C, A54C
B13: target 2 MT 5'PFS GCG 3'PFS AAU (mixed)
RNA 1: B4 RNA 1
RNA 2: B4 RNA 2 with U28C, U52A, A54U
B14: target 2 MT 5'PFS UCU 3'PFS CUA (mixed)
RNA 1: B4 RNA 1
RNA 2: B4 RNA 2 with G27U, U28C, G29U, U52C, A53U
B15: target 2 MT 5'PFS AUG 3'PFS AGU (mixed)
RNA 1: B4 RNA 1
RNA 2: B4 RNA 2 with G27A, U52A, A53G, A54U
B16: target 2 MT 5'PFS CUG 3'PFS AAG (mixed)
RNA 1: B4 RNA 1
RNA 2: B4 RNA 2 with G27C, U52A, A54G
B17: target 2 MT 5'PFS GCA 3'PFS ACA (mixed)
RNA 1: B4 RNA 1
RNA 2: B4 RNA 2 with U28C, G29A, U52A, A53C
B18: target 2 MT 5'PFS AAC 3'PFS CUU (mixed)
RNA 1: B4 RNA 1
RNA 2: B4 RNA 2 with G27A, U28A, G29C, U52C, A53U, A54U
B19: target 2 MT 5'PFS UCU 3'PFS CUU (mixed)
RNA 1: B4 RNA 1
RNA 2: B4 RNA 2 with G27U, U28C, G29U, U52C, A53U, A54U
B20: target 2 MT 5'PFS CUG 3'PFS AAC (mixed)
RNA 1: B4 RNA 1
RNA 2: B4 RNA 2 with G27C, U52A, A54C
B21: target 2 MT 5'PFS AUU 3'PFS CUU (mixed)
RNA 1: B4 RNA 1
RNA 2: B4 RNA 2 with G27A, G29U, U52C, A53U, A54U
B22: target 2 MT 5'PFS CGC 3'PFS AAG (mixed)
RNA 1: B4 RNA 1
RNA 2: B4 RNA 2 with G27C, U28G, G29C, U52A, A54G
B23: target 2 MT 5'PFS CUG 3'PFS AAA (mixed)
RNA 1: B4 RNA 1
RNA 2: B4 RNA 2 with G27C, U52A
B24: target 2 MT 5'PFS CUG 3'PFS AAU (mixed)
RNA 1: B4 RNA 1
RNA 2: B4 RNA 2 with G27C, U52A, A54U
B25: target 2 MT 5'PFS CGC 3'PFS AAA (mixed)
RNA 1: B4 RNA 1
RNA 2: B4 RNA 2 with G27C, U28G, G29C, U52A
B26: target 2 MT 5'PFS AAG 3'PFS UUA (mixed)
RNA 1: B4 RNA 1
RNA 2: B4 RNA 2 with G27A, U28A, A53U
B27: target 2 MT 5'PFS CGC 3'PFS AAC (mixed)
RNA 1: B4 RNA 1
RNA 2: B4 RNA 2 with G27C, U28G, G29C, U52A, A54C
B28: target 2 MT 5'PFS GCA 3'PFS ACC (mixed)
RNA 1: B4 RNA 1
RNA 2: B4 RNA 2 with U28C, G29A, U52A, A53C, A54C
B29: target 2 MT 5'PFS AUG 3'PFS AGA (mixed)
RNA 1: B4 RNA 1
RNA 2: B4 RNA 2 with G27A, U52A, A53G
B30: target 2 MT 5'PFS GGC 3'PFS UAG (mixed)
RNA 1: B4 RNA 1
RNA 2: B4 RNA 2 with U28G, G29C, A54G
B31: target 2 MT 5'PFS GCG 3'PFS AAC (mixed)
RNA 1: B4 RNA 1
RNA 2: B4 RNA 2 with U28C, U52A, A54C

For the data set, the target named is T1, EsCas13d, nuclease-dead. Nature of the data set: crRNA (strand 1, pre-loaded); Mg2+; 40 mM Tris-HCl pH 7.5, 150 mM NaCl, 6 mM MgCl2, 1 mM DTT, 0.1% Tween-20, 0.2 mg/ml BSA; 25 C; 10 min per concentration, then washed. Particulars: tags: His6-TwinStrep-SUMO cleaved; N-terminal SNAP kept (SNAP-Surface 488); label: 3' end held by stalled T7 RNA polymerase.
As a reminder, the Kd is the equilibrium constant for the complex coming apart. The molecule B1 yielded a Kd of 36.7 ± 2.8 nM.
In the case of B2 it was 68 ± 14 nM; in that of B3, 11.6 ± 1.4 nM.
With B4 the figure was 9 ± 0.7 nM; with B5, 4.4 ± 1 nM; with B6, 13.3 ± 2 nM.
With B7 the figure was 7.2 ± 0.9 nM; with B8, 8.5 ± 3 nM.
B9 registered a Kd of 9.3 ± 1.6 nM.
In the case of B10 it was 8.1 ± 1.6 nM; in that of B11, 9.5 ± 0.7 nM; in that of B12, 19.6 ± 3 nM.
With B13 the figure was 8.4 ± 1.3 nM; with B14, 20 ± 6 nM; with B15, 11.1 ± 1.6 nM.
On to B16, for which the Kd came out at 3 ± 0.4 nM.
In the case of B17 it was 10.2 ± 1.7 nM; in that of B18, 9.1 ± 2.7 nM.
In the case of B19 it was 14.1 ± 2.5 nM; in that of B20, 3.4 ± 0.4 nM.
In the case of B21 it was 10 ± 1 nM.
Take B22: the affinity, expressed as Kd, was 4 ± 0.6 nM.
In the case of B23 it was 2.9 ± 0.32 nM; in that of B24, 3.6 ± 0.5 nM.
Molecule B25 showed a Kd of 5.8 ± 1.6 nM.
In the case of B26 it was 6.8 ± 1.3 nM.
As for B27, the affinity, expressed as Kd, was 4.9 ± 0.5 nM.
With B28 the figure was around 36 nM; with B29, 15 ± 5 nM; with B30, 13.1 ± 2 nM.
Regarding B31, binding was put at a Kd of 15 ± 4 nM.
